The assay concerns the target 30 kDa ragweed complete pollen extract disulfide protein allergen (Ambrosia trifida (giant ragweed)). Nature of the assay: Concanavalin A affinity chromatography.

Regarding “Concanavalin A (from UniProt P02866 30-281)”, the percent retained on affinity column was > 90%.

Values taken from patent publication US20030170763A1.
